The RNAGym collection of RNA variant scans (doi:10.7554/elife.80360)

B1: HDV Ribozyme (parent)
chain: GGCCGGCAUGGUCCCAGCCUCCUCGCUGGCGCCGGCUGGGCAACAUUCCGAGGGGACCGUCCCCUCGGUAAUGGCGAAUGGGACCCA

Variants of: B1
Assay: self-cleavage, relative activity (ratio to wild type); higher = more cleavage; co-transcriptional
In the case of C24U C48G, the self-cleavage is reported as 0.627.
C26A A43G showed a self-cleavage of 0.731.
C26A A43C showed a self-cleavage of 0.665.
In the case of G25C G54C, the self-cleavage is reported as 0.138.
C24U C44U gave a self-cleavage of 0.434.
G25C A45G showed a self-cleavage of 0.104.
C24G G52C showed a self-cleavage of 0.172.
Work on C26U C41G yielded a self-cleavage of 1.02.
With G25A A87U the self-cleavage was 0.277.
For G25A A87G, the self-cleavage was 0.163.
G25U C41G gave a self-cleavage of 0.119.
Variant C26A U60A has a self-cleavage of 1.02.
G25A C44G gave a self-cleavage of 0.0923.
For G25C C36A, the self-cleavage was 0.128.
Work on G25C C36G yielded a self-cleavage of 0.0519.
With C24U the self-cleavage was 0.73.
For G25U A51U, the self-cleavage was 0.237.
With G25U A42G the self-cleavage was 0.119.
Variant G25U G50A has a self-cleavage of 0.151.
In the case of G25U G50C, the self-cleavage is reported as 0.136.
For C26A G73C, the self-cleavage was 0.522.
C26A G73A gave a self-cleavage of 0.89.
For C26U A51U, the self-cleavage was 0.901.
For C26U A51C, the self-cleavage was 0.872.
G25A U69G showed a self-cleavage of 0.233.
With G25A U69A the self-cleavage was 0.222.
Variant C26U G80A has a self-cleavage of 0.897.
With C26G G67U the self-cleavage was 0.665.
In the case of C26A U72G, the self-cleavage is reported as 0.657.
Variant G25U G82U has a self-cleavage of 0.0252.
With C26A A78G the self-cleavage was 0.831.
C24U G40U showed a self-cleavage of 0.337.
Work on C24U G40A yielded a self-cleavage of 0.701.
For G25C C58G, the self-cleavage was 0.161.
For C26U G59A, the self-cleavage was 1.08.
G25A C36G showed a self-cleavage of 0.0997.
G25A C36A showed a self-cleavage of 0.0554.
G25U U72A gave a self-cleavage of 0.0707.
Work on C24U A87C yielded a self-cleavage of 0.739.
G25A U47G gave a self-cleavage of 0.32.
With G25A U47A the self-cleavage was 0.0831.
For C26U C64U, the self-cleavage was 0.819.
Variant C24U C36U has a self-cleavage of 0.402.
For C24U C36G, the self-cleavage was 0.141.
G25C G29C gave a self-cleavage of 0.0489.
Variant C24U A70G has a self-cleavage of 0.706.
For C24U A70C, the self-cleavage was 0.573.
Variant C26U C84G has a self-cleavage of 0.962.
C26G G35C showed a self-cleavage of 0.131.
Work on C26U G73C yielded a self-cleavage of 0.492.
Work on C26G C36A yielded a self-cleavage of 0.151.
Variant C26G C36U has a self-cleavage of 0.529.
For C24U G50A, the self-cleavage was 0.726.
With C24U G50C the self-cleavage was 0.554.
G25U C86A gave a self-cleavage of 0.102.
With G25U C86U the self-cleavage was 0.108.
G25U C86G showed a self-cleavage of 0.256.
Work on C24U C75A yielded a self-cleavage of 0.0639.
Work on C26A C44G yielded a self-cleavage of 0.712.
In the case of C26U C36U, the self-cleavage is reported as 0.975.
With C26G G82A the self-cleavage was 0.813.
Work on C24G U60C yielded a self-cleavage of 0.277.
C24G U60A showed a self-cleavage of 0.264.
Work on C26G U46A yielded a self-cleavage of 0.731.
C26U G31U showed a self-cleavage of 0.762.
C26U G31A gave a self-cleavage of 0.819.
G25U C75U gave a self-cleavage of 0.162.
With G25C G35A the self-cleavage was 0.0346.
C26U C30A gave a self-cleavage of 0.816.
C26U C30U gave a self-cleavage of 0.967.
With U27A A45C the self-cleavage was 0.256.
Work on C24U A56U yielded a self-cleavage of 0.401.
In the case of C24U A56C, the self-cleavage is reported as 0.973.
Work on C26U C75U yielded a self-cleavage of 0.113.
Work on C26U C75G yielded a self-cleavage of 0.287.
G25A A71G gave a self-cleavage of 0.0594.
For C26G G53C, the self-cleavage was 0.73.
For G25A G82C, the self-cleavage was 0.089.
C26A G38U gave a self-cleavage of 0.208.
For G25C C57A, the self-cleavage was 0.166.
With C26U C57A the self-cleavage was 1.22.
Work on C26U C57G yielded a self-cleavage of 0.932.
For C24G G25A, the self-cleavage was 0.0959.
With C24G G25C the self-cleavage was 0.145.
Variant G25A U37G has a self-cleavage of 0.104.
For C24U G53C, the self-cleavage was 0.848.
With G25C A87U the self-cleavage was 0.0773.
Variant G25C A87C has a self-cleavage of 0.07.
G25C C86G showed a self-cleavage of 0.332.
With C26A A56U the self-cleavage was 1.12.
C24U C41U gave a self-cleavage of 0.616.
C24U C41G showed a self-cleavage of 0.437.
With C24U C84U the self-cleavage was 0.53.
Variant G25A C66G has a self-cleavage of 0.376.
Variant G25A U79A has a self-cleavage of 0.0437.
G25A U79C gave a self-cleavage of 0.0583.
In the case of G25C C63G, the self-cleavage is reported as 0.0875.
With C26A C30U the self-cleavage was 0.68.
C26G C85G gave a self-cleavage of 0.965.
C26G C85A showed a self-cleavage of 1.06.
Variant C26G C41U has a self-cleavage of 0.76.
In the case of C26G C41G, the self-cleavage is reported as 0.739.
C24G U69A showed a self-cleavage of 0.204.
Work on C26U C85A yielded a self-cleavage of 0.96.
C26A G53C showed a self-cleavage of 0.759.
With G25U G38A the self-cleavage was 0.0511.
C26A G81A gave a self-cleavage of 0.712.
Work on C24G G74A yielded a self-cleavage of 0.124.
Variant C24G G74C has a self-cleavage of 0.109.
Variant C26U A77G has a self-cleavage of 0.872.
For C26U A77U, the self-cleavage was 0.641.
In the case of G25U C62A, the self-cleavage is reported as 0.138.
C26G U69C showed a self-cleavage of 1.26.
With C26G U69A the self-cleavage was 0.886.
Variant G25C G31U has a self-cleavage of 0.214.
Work on C26A C41G yielded a self-cleavage of 0.883.
C26A C41U gave a self-cleavage of 1.17.
For C26A A42U, the self-cleavage was 0.525.
Work on G25A A77U yielded a self-cleavage of 0.
G25A A77G gave a self-cleavage of 0.
G25C G68A gave a self-cleavage of 0.227.
G25U C48U gave a self-cleavage of 0.102.
Variant C26U U65C has a self-cleavage of 1.07.
C26U U65G showed a self-cleavage of 1.02.
Variant C24G G81C has a self-cleavage of 0.032.
Work on C26G G40C yielded a self-cleavage of 0.19.
Work on G25A C63A yielded a self-cleavage of 0.125.
Work on C24G G82U yielded a self-cleavage of 0.0302.
U27A A42G showed a self-cleavage of 0.361.
With G25C U46A the self-cleavage was 0.
In the case of G25U A45U, the self-cleavage is reported as 0.172.
Work on C24G G53C yielded a self-cleavage of 0.0817.
C24G G53A showed a self-cleavage of 0.18.
Work on C24U U79A yielded a self-cleavage of 0.208.
C26G C57A showed a self-cleavage of 0.812.
C24G G68A showed a self-cleavage of 0.22.
For C26G G59U, the self-cleavage was 0.831.
Variant C26G G68A has a self-cleavage of 0.787.
With G25U G34C the self-cleavage was 0.0396.
Variant G25U G34A has a self-cleavage of 0.0573.
For G25C U60G, the self-cleavage was 0.101.
In the case of U27A, the self-cleavage is reported as 0.916.
For G25U A83C, the self-cleavage was 0.0386.
For C26G C84A, the self-cleavage was 1.09.
For G25U C36U, the self-cleavage was 0.218.
With C24G G40U the self-cleavage was 0.17.
C26A G34A gave a self-cleavage of 0.486.
With C26U C33G the self-cleavage was 0.389.
Work on C26U C33U yielded a self-cleavage of 0.872.
Variant G25A G29A has a self-cleavage of 0.0567.
C26G G39C gave a self-cleavage of 0.18.
With C26G G39U the self-cleavage was 0.324.
In the case of C26G C75A, the self-cleavage is reported as 0.266.
C26A A71G showed a self-cleavage of 1.11.
Work on C26U A70G yielded a self-cleavage of 0.831.
With C26A C63G the self-cleavage was 0.853.
For G25C C41G, the self-cleavage was 0.
Variant C26U G76C has a self-cleavage of 0.87.
G25A G73C showed a self-cleavage of 0.113.
Variant G25U C64A has a self-cleavage of 0.151.
G25C A43U showed a self-cleavage of 0.147.
Work on G25C A43G yielded a self-cleavage of 0.
C26G A77C gave a self-cleavage of 0.383.
U27A A43U gave a self-cleavage of 0.401.
Variant U27A A43C has a self-cleavage of 0.0723.
With C24U G67C the self-cleavage was 0.78.
Variant C26G A83C has a self-cleavage of 0.785.
